Experiments:
[1] = biological target: Diaphorase; assay: peptide array, 10 uM labeled diaphorase, no FAD; detector saturation
[2] = biological target: Diaphorase; assay: peptide array, 10 uM labeled diaphorase, with FAD
[3] = biological target: Diaphorase; assay: peptide array, 10 uM diaphorase, binding without FAD / with FAD
[4] = biological target: Diaphorase; assay: peptide array, 1 uM labeled diaphorase, with FAD
[5] = biological target: Diaphorase; assay: peptide array, 1 uM labeled diaphorase, no FAD
[6] = biological target: Diaphorase; assay: peptide array, 1 uM diaphorase, binding without FAD / with FAD
[7] = biological target: Diaphorase; assay: peptide array, 1 uM diaphorase, measured binding without FAD / with FAD
[8] = biological target: Diaphorase; assay: peptide array, 10 uM labeled diaphorase, with FAD; detector saturation
[9] = biological target: Diaphorase; assay: peptide array, 10 uM labeled diaphorase, no FAD

fluorescence [1] | fluorescence [2] | noFAD/FAD [3] | fluorescence [4] | fluorescence [5] | noFAD/FAD [6] | Meas. ratio (noFAD/FAD) [7] | fluorescence [8] | fluorescence [9] | Binder
> 65500 | 43300 | 1.51 | 2930 | 8370 | 2.86 |  |  |  | YRNAAWFSGGSG
 |  |  |  |  |  | 0.73 |  |  | AFNVWQYFEGGSG
 |  |  |  |  |  | 0.7 |  |  | DANLFGYFKDGGS
> 65500 | 36700 | 1.79 | 2460 | 6910 | 2.81 |  |  |  | PRYQNFGGGSG
> 65500 | 51200 | 1.28 | 3610 | 10000 | 2.77 |  |  |  | RWSFPAKGGSG
 |  |  |  |  |  | 0.73 |  |  | FNKVLEYKWLFEG
 |  |  |  |  |  | 0.77 |  |  | NHLLEGAFVSEGS
 |  |  |  |  |  | 0.7 |  |  | SGVLQFFGGSG
> 65500 | 64100 | 1.02 | 4970 | 13600 | 2.73 |  |  |  | RYAYFQHLGGSG
 |  |  |  |  |  | 0.75 |  |  | DYFEGQLNHLGGS
> 65500 | 61700 | 1.06 | 4540 | 11900 | 2.62 |  |  |  | RLYPQGYGGSG
> 65500 | 51400 | 1.27 | 4090 | 11000 | 2.7 |  |  |  | RWRYYWKSEGSG
> 65500 | 40500 | 1.62 | 2530 | 6840 | 2.71 |  |  |  | PRSFGYNNVGGSG
 |  |  |  |  |  | 0.69 |  |  | PVPWRHVNYAHSG
 |  |  |  |  |  | 0.7 |  |  | GYHLFEKLYFDGS
 |  |  |  |  |  | 0.78 |  |  | EGFGYLFAHVGGS
 |  |  |  |  |  | 0.87 |  |  | FLQFLGGSG
 |  |  |  |  |  | 0.69 |  |  | LFDNVLEFVEDGS

fluorescence [1] | fluorescence [2] | noFAD/FAD [3] | fluorescence [4] | fluorescence [5] | noFAD/FAD [6] | Meas. ratio (noFAD/FAD) [7] | fluorescence [8] | fluorescence [9] | Binder
> 65500 | 55400 | 1.18 | 3160 | 8720 | 2.76 |  |  |  | RAQYAQYLFGGSG
> 65500 | 53000 | 1.24 | 3480 | 9740 | 2.8 |  |  |  | RYPWNKLYKFDGSG
> 65500 |  | 1 | 5460 | 15700 | 2.88 |  | > 65500 |  | RWQYYNQKFGSG
 |  | 0.499 | 9010 | 5780 | 0.641 |  | > 65500 | 32700 | DLFQLVFSGSG
> 65500 | 37700 | 1.74 | 2370 | 6240 | 2.63 |  |  |  | YRFPNAQSPGGSG
> 65500 | 64000 | 1.02 | 4480 | 14500 | 3.23 |  |  |  | RQAYLFGGSG
 |  |  |  |  |  | 0.7 |  |  | KEDKVFGFRFDGS
 |  |  |  |  |  | 0.75 |  |  | FYNFGYQDLEDGS
 |  |  |  |  |  | 0.68 |  |  | VLAYKLQVDGSG
> 65500 | 48600 | 1.35 | 2940 | 7830 | 2.66 |  |  |  | RNWYGGS [RNWYGGSG]
> 65500 | 56700 | 1.16 | 4150 | 12700 | 3.05 |  |  |  | YRLNLKHPVGGSG
 |  |  |  |  |  | 0.69 |  |  | ALDKLSGLWKHVG
 |  |  |  |  |  | 0.74 |  |  | AWVELEYQYVFEG
> 65500 |  | 1 | 6760 | 18700 | 2.77 |  | > 65500 |  | YRPYGPVYNGGSG
> 65500 |  | 1 | 7540 | 21900 | 2.91 |  | > 65500 |  | RYYPAFSGGSG
 |  |  |  |  |  | 0.72 |  |  | HVYGLNLFDGSG
 |  |  |  |  |  | 0.71 |  |  | VSWVFGLGHEGGS
> 65500 | 45200 | 1.45 | 3230 | 8430 | 2.61 |  |  |  | PRYSGQYGGSG
